To fix the notation:
B1: UFC1 (recombinant, GST tag cleaved) (enzyme)
chain: MADEATRRVVSEIPVLKTNAGPRDRELWVQRLKEEYQSLIRYVENNKNADNDWFRLESNKEGTRWFGKCWYIHDLLKYEFDIEFDIPITYPTTAPEIAVPELDGKTAKMYRGGKICLTDHFKPLWARNVPKFGLAHLMALGLGPWLAVEIPDLIQKGVIQHKEKCNQ
B2: GST-CDK5RAP3 (natural protein)
chain: MEDHQHVPIDIQTSKLLDWLVDRRHCSLKWQSLVLTIREKINAAIQDMPESEEIAQLLSGSYIHYFHCLRILDLLKGTEASTKNIFGRYSSQRMKDWQEIIALYEKDNTYLVELSSLLVRNVNYEIPSLKKQIAKCQQLQQEYSRKEEECQAGAAEMREQFYHSCKQYGITGENVRGELLALVKDLPSQLAEIGAAAQQSLGEAIDVYQASVGFVCESPTEQVLPMLRFVQKRGNSTVYEWRTGTEPSVVERPHLEELPEQVAEDAIDWGDFGVEAVSEGTDSGISAEAAGIDWGIFPESDSKDPGGDGIDWGDDAVALQITVLEAGTQAPEGVARGPDALTLLEYTETRNQFLDELMELEIFLAQRAVELSEEADVLSVSQFQLAPAILQGQTKEKMVTMVSVLEDLIGKLTSLQLQHLFMILASPRYVDRVTEFLQQKLKQSQLLALKKELMVQKQQEALEEQAALEPKLDLLLEKTKELQKLIEADISKRYSGRPVNLMGTSL

For the assay “GST-CDK5RAP3”, the target named is B2. The experiment in a line: pull-down.
Another assay deals with T1, MBP-UFL1 (UniProt O94874 1-794).
T1 sequence: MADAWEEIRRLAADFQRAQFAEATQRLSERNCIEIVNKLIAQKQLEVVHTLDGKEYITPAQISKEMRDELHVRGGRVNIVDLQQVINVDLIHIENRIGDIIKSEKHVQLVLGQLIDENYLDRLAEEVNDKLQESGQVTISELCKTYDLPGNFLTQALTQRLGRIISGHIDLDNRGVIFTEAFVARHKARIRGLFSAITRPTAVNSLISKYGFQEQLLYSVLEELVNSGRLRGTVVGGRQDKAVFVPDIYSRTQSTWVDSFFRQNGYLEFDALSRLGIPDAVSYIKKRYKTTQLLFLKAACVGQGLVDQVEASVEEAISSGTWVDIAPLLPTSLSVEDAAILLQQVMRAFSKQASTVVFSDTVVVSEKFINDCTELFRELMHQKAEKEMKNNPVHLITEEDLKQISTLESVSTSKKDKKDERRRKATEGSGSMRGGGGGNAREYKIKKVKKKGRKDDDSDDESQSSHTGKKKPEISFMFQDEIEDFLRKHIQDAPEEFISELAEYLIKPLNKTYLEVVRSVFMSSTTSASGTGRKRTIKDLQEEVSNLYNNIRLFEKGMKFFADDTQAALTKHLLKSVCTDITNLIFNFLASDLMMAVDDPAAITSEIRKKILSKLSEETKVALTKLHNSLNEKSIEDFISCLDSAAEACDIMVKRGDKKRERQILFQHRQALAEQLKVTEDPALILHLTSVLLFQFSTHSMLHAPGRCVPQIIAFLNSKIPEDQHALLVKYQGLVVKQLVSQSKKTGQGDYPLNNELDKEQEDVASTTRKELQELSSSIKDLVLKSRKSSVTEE
The experiment in a line: pull-down.

The target in assay [1] is B1. Put plainly: ITC. For orientation: ITC needs no label: the signal is the heat of the interaction.

In the case of B1, the binding result with GST-CDK5RAP3 was “binds”. For the molecule B2, the binding result with MBP-UFL1 was “binds”.

On to MADAWEEIRRLAADFQRAQFA [UFL1 (1-21), UFC1-binding sequence peptide], for which the Kd in assay [1] was found to be 410 nM.

As a reminder, the Kd is the free concentration of one partner at which half of the binding sites on the other are occupied at equilibrium, for simple one-to-one binding.
